According to the supplement of paper PMC10724198:

Columns and labels:
Saccharomyces cerevisiae [1] = assay: protein stability index of tFT-peptide fusion in wild type (PSI (0-1 scale)); higher = more stable (slower turnover); settings: genetic background: wild type
Method: (§1)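 MPS profiling in S. cerevisiae of two library types built from selected 12-aa C-degron peptides (IN1, IN2, LN1, LN3, VN2, R1-R5, W1-W3, Atg1 and Rpa12 C-termini): saturation mutagenesis libraries and C-terminal +1 capping libraries (13 aa). Each peptide is fused to the C-terminus of a sfGFP-mCherry timer, after a GGGS linker. Cells are FACS-sorted into 8 mCherry/sfGFP bins and sequenced. PSI runs from 0 (unstable) to 1 (stable), measured once in wild type and in the das1Δ or doa10Δ background.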

Saccharomyces cerevisiae [2] = assay: protein stability index of tFT-peptide fusion in deletion strain of DAS1 (PSI (0-1 scale)); higher = more stable (slower turnover)
Method: as §1
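For protein stability index of tFT-peptide fusion in deletion strain of DAS1 in this document: PSI is a weighted mean of each variant's read distribution over the sorted stability bins, computed only for variants having over 10 reads in total.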
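For protein stability index of tFT-peptide fusion in wild type in this document: PSI derived as read-weighted mean over the 8 sorting bins, only variants exceeding 10 total reads kept, mCherry placed adjacent to the peptide and sfGFP distal.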

Sequence | protein stability index (Saccharomyces cerevisiae [1]) | protein stability index (Saccharomyces cerevisiae [2])
VRGAVGGWRTVG | 0.157 | 0.674
VRGAVGGWRLVGK | 0.651 | 0.667
PDKRNTLIKLLN | 0.108 | 0.599
CTSCGYWFRTNN | 0.438 | 0.668
KKHKMGQKQKIN | 0.0496 | 0.623
PDKINHLIKLLN | 0.135 | 0.578
KKHKKGQKHKIN | 0.228 | 0.588
PDKRNHLAKLLN | 0.0907 | 0.547
RLIQELPVQFLN | 0.061 | 0.616
LVVYASCVACIN | 0.023 | 0.0371
KKHKKGGKQKIN | 0.169 | 0.653
FSMRWTFPYWVN | 0.079 | 0.601
KKHKKGQKQKPN | 0.617 | 0.722
RLIQPLPVQTLN | 0.163 | 0.68
RLIQPLPGQFLN | 0.282 | 0.612
ARWRVGLWREAS | 0.169 | 0.668
VRAAVGGWRLVG | 0.14 | 0.681
RLIQPLPVQWLN | 0.0664 | 0.641
FSMRWTLRYWVN | 0.0387 | 0.438
CRSCGYKFRTNN | 0.243 | 0.708

Sequence | protein stability index (Saccharomyces cerevisiae [1]) | protein stability index (Saccharomyces cerevisiae [2])
RLIGPLPVQFLN | 0.0842 | 0.598
PSLAASFWRCVG | 0.144 | 0.674
PSLAASFWRVSG | 0.205 | 0.684
PDKRNLLIKLLN | 0.124 | 0.608
FSMRWTFFYWVN | 0.104 | 0.44
LKILRQKMNGQN | 0.353 | 0.659
VRGAVWGWRLVG | 0.108 | 0.649
VRGAVGCWRLVG | 0.162 | 0.69
PDHRNHLIKLLN | 0.0948 | 0.589
RLIQPLPVQFIN | 0.0372 | 0.583
ARWRVGLWRGAC | 0.123 | 0.681
FSMRWTFRYWFN | 0.318 | 0.503
ARWRVGLWRPAS | 0.645 | 0.691
LVVYFSCVACIN | 0.0194 | 0.0148
PSLKASFWRVVG | 0.147 | 0.678
PSLAASHWRVVG | 0.158 | 0.692
AAWRVGLWRGAS | 0.503 | 0.72
LVVYLRCVACIN | 0.0199 | 0.0318
CTGCGYKFRTNN | 0.231 | 0.678
PDKRNALIKLLN | 0.142 | 0.629

Sequence | protein stability index (Saccharomyces cerevisiae [1]) | protein stability index (Saccharomyces cerevisiae [2])
VRGAVGGNRLVG | 0.681 | 0.67
PDKRDHLIKLLN | 0.105 | 0.599
VRGAIGGWRLVG | 0.157 | 0.684
KKHKKGWKQKIN | 0.0739 | 0.682
PDKRNHLIKLLNQ | 0.316 | 0.667
LKILRQKMNHPN | 0.672 | 0.688
LVVYLSCVAVIN | 0.0169 | 0.0276
VRGAVGGWRDVG | 0.606 | 0.629
LKILRQKWNHQN | 0.194 | 0.662
VRGAVGGWRKVG | 0.133 | 0.68
RLIQPLPVYFLN | 0.0711 | 0.729
PDKRNNLIKLLN | 0.155 | 0.589
VRGAVGGWRMVG | 0.155 | 0.685
KKHKKGQKQLIN | 0.335 | 0.627
FSMRWTIRYWVN | 0.0535 | 0.38
LKILRQQMNHQN | 0.206 | 0.584
LKILRQKYNHQN | 0.189 | 0.7
VRGAVGPWRLVG | 0.138 | 0.687
KKHKKGQGQKIN | 0.42 | 0.59
